Reference: the nanobody polyreactivity screen of Harvey et al. (2022)

Experiment: yeast display, Sf9 membrane polyspecificity reagent, FACS + sequencing; frameworks hold sequencing errors
Method in brief: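 Genes from sorted yeast were amplified by colony PCR, read by MiSeq 2 × 250 sequencing and filtered on CDR length. These cells carried a synthetic nanobody library in Saccharomyces cerevisiae BJ5465 and were sorted by FACS into low and high (top ~1%) gates on anti-HA and streptavidin fluorescence. Polyreactivity is labelled according to the gate of origin.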

Sequence | polyreactivity (PSR sort gate)
QVQLVESGGGLVQAGASLRLSCAASGSTFARYAMGWYRQAPGKERELVAAISSSGRTYYADSVKGRFTISRDNAKNSVYLQMNSLKPEDTAVYYCNAPVARGEASYYWGQGTQVTVSS | high polyreactivity
QVQLVESGGGLVQAGGSLRLICAASGRTFSSYSMGWYRQAPGKERELVAAISRSGARTYYADSVKGRFTISRDNAKNTFYVQMNSLKPEDTAVYSCAGVTVAGYDYWGQGTEVTVSS | high polyreactivity
QVQLVESGGGLVQAGGSLRISCAASGSTFGGYVLGWYRPAPGKERELVAAISRSGASTYYADSVKGRFTISRDNAKNTVYLQMNSLKPEDTAVYYCAAYQARGLDYWGQGTQVTVSS | high polyreactivity
QVQLVESGGGLVQAGGSLRLSCAASGFIITGNPMGWYRQAPGKERELVAAITSGGNTYYADSVKGRFTISRDNANNTVYLQMNSLKPEDTAVYYCAKYVPHWRILMEYWGQGTQVTVSS | low polyreactivity
QVQLVESGGGLVQAGGSLRLSCAASGGTFPAYTMGWYRQAPGKERELVAAITWSGGNTYYADSVKGRFTISRDNAKNTVYLQMNSLKPQDTAVYYCAAEYWQYQWSVRIDYEYWGQGTQVTVSS | high polyreactivity
QVQLVESGGGLVQAGGSLRLSCAASGSTFGEYAMGWYRQAPGKERELVAAITSSGGSTYYADSVKGRFTISRDNAKNTVYLQMNSLKPEDTAVYYCAADWDYPYDEAVSKDIDYDYWGQGTQVTVSS | low polyreactivity
QVQLVESGVGLVQAGGSLRLSCAASGSIFYSNAMGRYRQAPGKERELVASIRGSGVSTYYADSVKGRFTISRDNAKNTVYLQMNRLKPEDTAVYYCAARYGRSYFGYYYWGQGTQVTVSS | high polyreactivity
QVQLVESGGGLVQAGGSLRLSCAASGRTFSYYALGWYRQAPGKERELVATISYSTGNTNYADSVKGRFTISRDNAKNTVYLQMNSLKPEDTAVYYCAADFSPFVGETYWKYDYWGQGTQVTVSS | low polyreactivity
QVQLVESGGGLVQAGGSLRLSCAASGRILYAYAMGWYRQAPGKERELVAAITWGGGNTYYADSVKGRFTISRDNAKNTVYLQMNSLKPEDTAVYYCAADASTVYSTVPEYDFWGQGTQVTVSS | low polyreactivity
QVQLVESGGGLVQAGGSLRLSCAASGSIFYTYVMGWYRPAPGKERELVAAISASGVRTYYADSVKGRFTISRDNAKYTFYLQMNSLKPEYTAVYFCAADRQRADYYWGQGTQVTVSS | high polyreactivity
QVQLVESGGGLDQAGGSLRLSSAASGFTFRRNAMGWYRQAPGTERELVASITQRGGSTYYADSVKGRFTISRDNAKNTVYLQMNSLKPEATAVYYCAAGPTSRRWYDYWGQGTEVTVSS | high polyreactivity
QVQLVESGGGLVQAGGSLRLSCAASGITSPSYAMGWYRQAPGKERELVAAISKNGVRTYYADSVKGRFTISRDNAKNTVYLQMNSLKPEDTAVYYCAARYNPLYATLYRRMDYWGQGTQVTVSS | high polyreactivity
QVQLVESGGGLVQAGGSLRLSCAASGSIMGWYRQAPGKERELVAAISRGGSTYYADSVKGRFTISRDNAKNTVYLQMNSLKPEDTAVYYCAAKTGGSRSRFEYWGQGTQVTVSS | high polyreactivity
QVQLEESGGGLVQAGGSLRLSCAASGRIFSYNAMGWSIPAPGKERELVAAISYSGGRTYYADSVKGRFTISRDNAKNTVYLQMNSLKPEDTAVYYCAAKRKIRGYGPYEYWGQGTQVTVSS | high polyreactivity
QVQLVESGGGLVQAGGSLRLSCAASGRTFWAYALGWYRQGPGKERELVAAITTSGGSTNYADSVKGRFTISRDNAKNTVYVQLHSLKPEDTAVYYCNADPTYPVVNGVGYWGQGTQVTVSS | low polyreactivity
QVQLVESGGGLVQAGGSLRLSCAASGFTLWLNAMGWSRQAPGKERELVAAITTSDDGTYYADSVNGRFTISRDTAKNTVYLQMNSLKPEDTAVYYCAADYYSVLYDYWGQGTQVTVSS | low polyreactivity

Sequence | polyreactivity (PSR sort gate)
QVQLVESGGGLVQAGGSLRLSCAASGSIFRFNPMGWYRQAPGKERELVAAISWSGGLTYYADSVKGRFTISRDNAKNTVSLQMNSLKPEDTAVYYCNAGRRYPLRYDYWGQGTQVTVSS | high polyreactivity
QVQLVESGGGLVQAGGSLRLSCAASGRIFYQYAMGWYRQAPGKERELVAAISWNGGRTYYADSVKGRFTISRDNAKNTVYLQMNSPKPEDTAVYYCNAVASKSFYYRDNYWGQGTQVTVSS | high polyreactivity
QVQLVESVGGLVQAGGSLRLSCDASGGIFWVYAMGWYRQAPGKERELVAAISNSDTSTSYADSVKGRFTISRDNAKNTVYLQMNSLKPEDTAVYYCNADSPSLSGDYWGQGTQVTVSS | low polyreactivity
QVQLVESGGGLVQAGGSLRLSCAASGSIFYVNAMGWSRQAPGKERELVAAITSGVSTNYADSVKGSFTISRDNAKNTVYLQMNSLKREDTAVYYSAADYTYKQLHWVIEDYWGQGTQVTVSS | low polyreactivity
QVQRVESGGGLVQAGGSLRLSCAASGSIFPSNTMGWYRQAPGKERELVAAISGSGTRTYYADSVKGRFTISRDNAKNTVYLQMNSLKPEDTAVYYCAADVDYWGQGTQVTVSS | low polyreactivity
QVQLVESGGGLVQAGGSLRLSCSASGSTSGKYAMGWYRQAPGKESELVAGITKGGGGTYYADSVKGRFTISRDNAKNTVYLQMNSLKPEDTAVYYCAKYYGSGYYIYDYWGQGTQVTVSS | low polyreactivity
QVQLVESGGGLVQAGGSLRLSCAASGRTFKYYTMGWYRQAPGKERELVAAITGSGGSTYYADSVKGRFTISRDNAKNTVYLQMNSLKPEDTAVYYCAAYRTFSREYYYWGQGTQVTVSS | high polyreactivity
QVQLVESGGGLVQAGGSLRLSCAASGSIFRYYAKGWYRHAPGKERELVAVISRSGTRTYYADSVKGRFTISRDNAKNTVYLQMNSLKPEDTAVYYCAAKDERRSFGMGYWGQGTQVTVSS | high polyreactivity
QVQLVESGGGLVQAGGSLRLSCAASGFTFDYNAMGWYRQAPGKERELVAGITSGGRTYYADSVKGRFTISRDNAKNTVYLQMNSLKPEDTAVYYCAATPEPPAYGTPLVPYSYDYWGQGTQVTVSS | low polyreactivity
QVQLVESGGGLVQAGGSLRLSCAASGRNFGYYTMGWYRQAPGKERELVARINYIGSSTYYADSVKGRFTISRDNAKNTVFLLMNSLKPEDTAVYYCAAETYYFGYGYWGQGTQVTVSS | high polyreactivity
QVQLVESGGGLVQAGGSLRLSCAASGRTFWKYAMGWSRQAPGKERELVAAITDDDSTDYADSVKGRFTISRDNAKNTVYLQMTSLKPEYTAVYYCNADSSRYYRALEYWGQGTQVTVSS | low polyreactivity
QVQLVESGGGLVQAGGSLRLSCAASGLTFGGNAMGWYRQAPGKERELVAGISSSGNTNYADSVKGRFTISRDNAKNTVYLQMNSLKPEDTAVYYCAADENITYPVYDMYYWGQGTQVTVSS | low polyreactivity
QVQHVESGGGLVQAGGSLRLSCAASGITFVLNSMGWSRPAPGKERELVAAIDTSGADTYYADSVKGRFTISRDNAKNTVYLQMNSLKPEDTAVYYCAAETITDDSYEYDYWGQGTQVTVSS | low polyreactivity
QVHLVESGGCLVQAGGTLRLSCAATGSIFYNYDMRWYRQAPGKEREFVAAITWSGTSTYYADSVKGRFTISRDNAKNTVYLQMNSLKPEDSAVYYCNALVRRRPGYIRYDYWGQGTQVTVSS | low polyreactivity
QVQLVESGGGLVQAGGSLRLSCAASGITFPGYAMGWYRQAPGKERELVAAIDRSGDGTYYADSVKGRFTISRDNAKNTVYLQMNSLKPEDPAVYYCAKDNYPNHSTVLAVIYDYWGQGTQVTVSS | low polyreactivity
QVQLQESGGGLVQAGGSLRLSCAASGSIFYVYGMGWYRLAPGKVRELVAGINAGTNTNYADSVRGRFTISRDNAKNTVHLQMTSLNPEETAVYYCAADGNGYQAHEYWGQGTQVTVSS | high polyreactivity
